This assay has as its target T1, full-length CDC34 with C191S/C223S substitutions (human, UniProt P49427 1-236, C191S | C223S).
T1 sequence: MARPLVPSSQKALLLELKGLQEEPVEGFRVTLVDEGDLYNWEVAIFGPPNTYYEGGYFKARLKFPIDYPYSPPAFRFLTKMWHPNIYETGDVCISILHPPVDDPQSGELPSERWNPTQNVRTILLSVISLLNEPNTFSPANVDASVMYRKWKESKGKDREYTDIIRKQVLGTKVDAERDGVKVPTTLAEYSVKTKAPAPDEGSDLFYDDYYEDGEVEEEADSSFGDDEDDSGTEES
As to the kind of experiment: NMR titration.

As a reminder, the Kd is the concentration at which binding is half-saturated. Lower therefore signals higher affinity.

B1: sRbx1^12–108 (solubilized human Rbx1/ROC1 residues 12–108 with W27S, V30S, L32Q, W33S) (domain or fragment)
chain: not shown
With B1, the Kd was > 1 mM.

The record behind these values is PMC3366790 (The Journal of Biological Chemistry, 2012).
